According to patent US9655974B2, “N-terminal modified FGF21 compounds” (Novo Nordisk A/S, priority 2010, dated 2017):
Substitutions are numbered along the chain they refer to. Names may count otherwise.

B1: Met-FGF21 (protein)
chain: MHPIPDSSPLLQFGGQVRQRYLYTDDAQQTEAHLEIREDGTVGGAADQSPESLLQLKALKPGVIQILGVKTSRFLCQRPDGALYGSLHFDPEACSFRELLLEDGYNVYQSEAHGLPLHLPGNKSPHRDPAPRGPARFLPLPGLPPALPEPPGILAPQPPDVGSSDPLSMVGPSQGRSPSYAS
notes: comparative compound
B2: [S71C, N121Q, L166F, S167G, M168L, P171L, S172E, Q173A, G174V, Y179F, A180E, des181] Ala-FGF21 (protein)
chain: AHPIPDSSPLLQFGGQVRQRYLYTDDAQQTEAHLEIREDGTVGGAADQSPESLLQLKALKPGVIQILGVKTCRFLCQRPDGALYGSLHFDPEACSFRELLLEDGYNVYQSEAHGLPLHLPGQKSPHRDPAPRGPARFLPLPGLPPALPEPPGILAPQPPDVGSSDPFGLVGLEAVRSPSFE
B3: [S71C, N121Q, L166F, S167G, M168L, des170, 173aA, G174V, Y179F, A180E, des181] Ala-FGF21 (protein)
chain: B2 chain with G171P, L172S, E173Q
B4: N-alpha-bis-(4-{[(2-(2-{2-[2-(2-{2-[(S)-4-carboxy-4-(17-carboxyheptadecanoylamino)butyrylamino]ethoxy}ethoxy)acetylamino]ethoxy}-ethoxy)acetylamino]methyl}benzyl) [Arg56, Arg59, Arg69, Arg122] … (conjugate, UniProt Q9NSA1 29-209, looked up, variant K56R K59R K69R K122R)
Fibroblast growth factor 21: HPIPDSSPLLQFGGQVRQRYLYTDDAQQTEAHLEIREDGTVGGAADQSPESLLQLRALRPGVIQILGVRTSRFLCQRPDGALYGSLHFDPEACSFRELLLEDGYNVYQSEAHGLPLHLPGNRSPHRDPAPRGPARFLPLPGLPPALPEPPGILAPQPPDVGSSDPLSMVGPSQGRSPSYAS
modifications: N-terminal Gly; bis fatty diacid-linker benzyl acylation
B5: [N121Q] Met-FGF21 (protein)
chain: B1 chain with N122Q
B6: [S71C, N121Q, L166F, S167G, M168L, 173aA, G174V, Y179F, A180E, des181] Ala-FGF21 (protein)
chain: AHPIPDSSPLLQFGGQVRQRYLYTDDAQQTEAHLEIREDGTVGGAADQSPESLLQLKALKPGVIQILGVKTCRFLCQRPDGALYGSLHFDPEACSFRELLLEDGYNVYQSEAHGLPLHLPGQKSPHRDPAPRGPARFLPLPGLPPALPEPPGILAPQPPDVGSSDPFGLVGPSQAVRSPSFE
B7: [N121Q, L166F, S167G, M168L, P171L, S172E, Q173A, G174V, Y179F, A180E, des181] Ala-FGF21 (protein)
chain: HPIPDSSPLLQFGGQVRQRYLYTDDAQQTEAHLEIREDGTVGGAADQSPESLLQLKALKPGVIQILGVKTSRFLCQRPDGALYGSLHFDPEACSFRELLLEDGYNVYQSEAHGLPLHLPGQKSPHRDPAPRGPARFLPLPGLPPALPEPPGILAPQPPDVGSSDPFGLVGLEAVRSPSFES
B8: [N121Q] Ala-FGF21 (protein)
chain: B1 chain with M1A, N122Q
B9: [K56R, K59R, K69R, K122R] Gly-FGF21 (protein)
chain: B1 chain with M1G, K57R, K60R, K70R, K123R

Columns and labels:
[1] = test system: HEK293 cells stably transfected with human beta-Klotho; experiment: HEK293/beta-Klotho Erk phosphorylation assay; format: cell-based; settings: without HSA; 12 minutes incubation; AlphaScreen SureFire Phospho-ERK1/2; read-out: pERK-HEK293-Beta-klotho without HSA [EC50 (nM)] Mean Value
Protocol: Erk phosphorylation assay was performed in HEK293 cells that were stably transfected with human beta-Klotho. The HEK293T/b-klotho stable cells were seeded at 30000 cells/well on 96-well plates. After two days, fresh media was added, and after 2 hours more the FGF21 proteins were added. The plates were incubated for 12 minutes. And total ERK phosphorylation was assessed using an AlphaScreen SureFire Phospho-ERK1/2 Assay Kit (Perkin Elmer, Waltham, Mass.) according to the manufacturer's instructions and an EnVision Multilabel Microplate Reader Model 2103 (Perkin Elmer) with the AlphaScreen HTS Turbo option was used for signal detection. Data are represented as means+/−S.E.M. EC50 values were determined from a 4-parameter logistic nonlinear regression analysis using GraphPad Prism version 5.02. References: Yie, J. et al.: FGF21 N- and C-termini play different roles in receptor interaction and activation, FEBS Letters 583 (2009) 19-24, and Micanovic R. et al.: Different roles of N- and C-termini in the functional activity of FGF21. J. Cell. Physiol. 2009 May; 219(2):227-34.

3T3-L1 adipocytes = experiment: Potency assay - glucose uptake in 3T3-L1 adipocytes; format: cell-based, mouse; settings: EC50 relative to EC50 of Met-FGF21; 20 hours stimulation, 3H-deoxyglucose tracer
Protocol: The following assay was used for determining the biological activity, or potency, of FGF21 compounds of the invention. […] The cells are not allowed to reach confluence and should be passed (transferred to new vials) before reaching approx. 60% of confluency (by visual inspection). For the glucose uptake assay, cells are plated 80,000 cells/well in a 24 well plate, or 20,000 cells/well in a 96 well plate, and when they reach confluency (high density, with a view to have differentiated adipose cells made), the medium is changed from basal medium to basal medium containing Troglitazone, IBMX, Dexamethasone (commercially available from, e.g., Sigma) and human insulin (commercially available from, e.g., Novo Nordisk A/S). The cells are used 7-14, preferably 7-10, days after initiation of differentiation. […] This incubation is terminated by washing twice in ice cold assay buffer. The cells are lysed with Triton X-100 and lysates transferred to a 96 wells plate, microscint-40 (commercially available from, e.g., Perkin Elmer) is added and amount of tracer counted in a TOP-counter (e.g. a Packard top-counter from Perkin Elmer). The EC50 of the polypeptide in question is calculated.

[2] = Pharmacokinetics in mini pig, single intravenous dose; format: in vivo; settings: normal male Göttingen mini pigs, single intravenous dose of 0.1 mg/kg; standard deviation 2.7 hours
Protocol: The pharmacokinetic profile of Met-FGF21 can be tested in normal male Göttingen mini pigs, n=4 (8-15 months old, weighing approximately 18-30 kg). The plasma concentration of the compound to be tested is monitored for 14 days. The Met-FGF21 is dosed as a single intravenous dose of 0.1 mg/kg (approximately 5 nmol/kg).
The plasma levels of the FGF21 compounds can be determined using Fibroblast Growth Factor-21 Human ELISA (available from BioVendor, catalogue no. RD191108200R). The PC based software, WinNonLin version 5.2 from Pharsight Corporation, Cary N.C., can be used for the pharmacokinetic calculation.

Molecule	EC50 [1]	Glucose uptake 3T3-L1 Potency (%) rel. to Met-FGF21 (3T3-L1 adipocytes)	mean half-life (T1/2) [2]
[Q28R, K56R, K59R, K69R, D102T, D121Q, K122R, L166F, S167G, M168L, G170T] Ala-FGF21 [Example 2b]	0.8 nM	416%	–
N-alpha-(4-{[2-(2-{2-[2-(2-{2-[(S)-4-carboxy-4-(17-carboxyheptadecanoylamino)butyrylamino]ethoxy}ethoxy)acetylamino]ethoxy}ethoxy)acetylamino]methyl}benzyl) [K56R, K59R, K69R, D102T, D121Q, K122R, L166F, S167G, M168L, G170T] Ala-FGF21 [Example 5]	1 nM	100%	–
N-alpha(4-{[2-(2-{2-[2-(2-{2-[(S)-4-Carboxy-4-(17-carboxyheptadecanoylamino)butyrylamino]-ethoxy}ethoxy)acetylamino]ethoxy}ethoxy)acetylamino]methyl}benzyl) [S71C, N121Q, L166F, S167G, M168L, P171L, S172E, Q173A, G174V, Y179F, A180E, des181] Ala-FGF21 [Example 6]	0.4 nM	352%	–
B1	–	100%	10.8 h
B2	–	872%	–
B3	–	663%	–
B4	4.6 nM	8.5%	–
B5	–	119%	–
B6	–	394%	–
B7	0.7 nM	1593%	–
B8	–	116%	–
B9	–	66%	–
